# Test results from PMC2816707, “A Humanized Anti-VEGF Rabbit Monoclonal Antibody Inhibits Angiogenesis and Blocks Tumor Growth in Xenograft Models” (PLoS ONE, 2010).
# Legend:
# [1] = target: T1, rabbit IgG Fc-hVEGF (human VEGF165) fusion protein, wild type (human, UniProt P15692-4); assay: ELISA; VEGF capture ELISA: Fc-VEGF supernatants captured on coated goat anti-rabbit IgG (H+L); hEBV321 at various concentrations, 1 hr at 37°C; detected by anti-human IgG alkaline phosphatase; settings: one partner purified
# T1 construct: also called Fc-VEGF; VEGF wild type; source: HEK-293E cells, transient transfection, cleared culture supernatant; not shown: Fc (rabbit IgG), N-terminal, kept
# T1 sequence (P15692 other isoform, or with tags, fused parts or gaps): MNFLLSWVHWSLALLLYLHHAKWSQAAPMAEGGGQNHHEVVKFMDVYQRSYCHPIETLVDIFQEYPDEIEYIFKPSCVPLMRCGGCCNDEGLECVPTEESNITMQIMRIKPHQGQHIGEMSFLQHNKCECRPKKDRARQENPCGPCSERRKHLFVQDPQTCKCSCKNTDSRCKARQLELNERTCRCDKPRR
# [2] = target: T2, Recombinant human VEGF165 (human, UniProt P15692-4, strain); assay: SPR; BIAcore 3000; antibodies immobilised on CM5 chips by amine coupling (about 600 RU); VEGF165 (R&D Systems) injected at 0.2 to 50 nM, 35 µl/min, 25°C, HBS-P (10 mM HEPES pH 7.4, 150 mM NaCl, 0.005% P20); 1:1 binding model, global fit; settings: both partners purified
# T2 construct: also called human vascular endothelial growth factor-A; VEGF-A165; source: bought: Shanghai Primegene Bio-Tech Co. and R&D System
# [3] = target: T2, Recombinant human VEGF165; assay: as above; settings: both partners purified; remark: listed apart in the source
# [4] = target: T2, Recombinant human VEGF165; assay: cell-based or functional assay
# Target sequence in this assay (P15692 whole entry, looked up, stated change not applied): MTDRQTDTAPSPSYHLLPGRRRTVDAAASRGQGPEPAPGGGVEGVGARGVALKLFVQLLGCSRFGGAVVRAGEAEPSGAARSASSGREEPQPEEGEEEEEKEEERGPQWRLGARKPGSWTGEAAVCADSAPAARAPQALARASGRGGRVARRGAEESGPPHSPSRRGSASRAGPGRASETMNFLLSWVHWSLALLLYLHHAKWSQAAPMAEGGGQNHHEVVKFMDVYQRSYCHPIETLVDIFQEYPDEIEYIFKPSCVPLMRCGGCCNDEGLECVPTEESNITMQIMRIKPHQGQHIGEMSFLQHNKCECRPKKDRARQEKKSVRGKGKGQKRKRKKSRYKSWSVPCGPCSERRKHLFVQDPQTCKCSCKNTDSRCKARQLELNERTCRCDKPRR
# [5] = target: T2, Recombinant human VEGF165; assay: ELISA; direct competition ELISA: human VEGF-A165 coated (0.05 µg/ml); reference antibody (0.04 µg/ml) mixed with increasing concentration of competitor, 1 hr at room temperature; bound reference antibody detected by anti-rabbit IgG Fc secondary antibody, chemiluminescence; settings: both partners purified
# Target sequence in this assay (P15692 whole entry, looked up, stated change not applied): as above
# [6] = target: T2, Recombinant human VEGF165; assay: ELISA; VEGF/VEGFR-2 interaction ELISA: 5 µg/ml Fc-VEGFR-2 (ECD) coated; antibody pre-incubated 1 hour with recombinant human VEGF (0.5 µg/ml final) before transfer to the plate; bound VEGF detected by a mouse anti-VEGF165 monoclonal antibody; triplicates; settings: both partners purified
# [7] = target: T2, Recombinant human VEGF165; assay: as above; settings: both partners purified; remark: listed apart in the source
# [8] = target: T2, Recombinant human VEGF165; assay: ELISA; antigen binding ELISA with the antigen coated on a 96-well plate; paired H and L chains of the 15 antibodies; grades against background reading
# Target sequence in this assay (P15692 whole entry, looked up, stated change not applied): as above
binder,measurement,setting,value
"humanized EBV321 (antibody, V domains shown, also called hEBV321; humanized anti-VEGF RabMAb; source: 293-6E cells, L and H chain plasmids co-transfected, purified (protein A)) VH: EVQLVESGGGLVKPGGSLRLSCAASGFSFSNNDVMCWVRQAPGKGLEWIGCIMTTDVVTEYANWAKSRFTVSRDSAKNSVYLQMNSLRAEDTAVYFCARDSVGSPLMSFDLWGPGTLVTVSS VL: DIQMTQSPSSLSASVGDRVTINCQASQSIYNNNELSWYQQKPGKPPKLLIYRASTLASGVPSRFSGSGSGTDFTLTISSLQPEDVATYYCGGYKSYSNDGNGFGGGTKVEIK",binding result,[1],binds
same,Kd,[2],0.0115 nM
same,koff,[2],1.88e-05 s⁻¹
same,kon,[2],1.63e+06 M⁻¹ s⁻¹
same,Kd,[3],0.0119 nM
same,IC50 of inhibition of VEGF-stimulated HUVEC proliferation,[4],0.008 nM
same,inhibition of EBV321 binding to VEGF at 5 fold excess,[5],50%
same,IC50,[6],3.2 nM
"anti-VEGF RabMAb EBV321 (antibody, V domains shown, also called parental EBV321; source: 293-6E cells, L and H chain plasmids co-transfected, purified (protein A)) VH: QSLEESGGDLVKPGASLTLSCTASGFSFSNNDVMCWVRQAPGKGLEWIGCIMTTDVVTEYANWAKSRFTVSKTSSSTVTLQLTSLTVADTATYFCARDSVGSPLMSFDLWGPGTLVTVSS VL: LVMTQTPASVSAAVGGTVTINCQASQSVYGNNELSWYQQKPGQPPKLLIYRASTLASGVPSRFSGSGSGTQFTLTISGVQCADAATYYCGGYKSYSNDGNGFGGGTEVVVK",Kd,[2],0.419 nM
same,koff,[2],0.00119 s⁻¹
same,kon,[2],2.85e+06 M⁻¹ s⁻¹
same,IC50 of inhibition of VEGF-stimulated HUVEC proliferation,[4],0.039 nM
same,IC50,[7],0.56 nM
same,IC50,[6],4.1 nM
"anti-VEGF RabMAb EBV302 (antibody, V domains shown, also called 302H/302L; source: 293-6E cells, L and H chain plasmids co-transfected, purified (protein A)) VH: QSLEESGGDLVKPGASLTLTCTASGFSFSNNAVMCWVRQAPGKGLEWIGCIMTTDVVTEYANWAKSRFTVSKTSSTTVTLQMTSLTVADTATYFCARDSVGSPLMSFDLWGPGTLVTVSS VL: LVMTQTPASVSAAVGGTVIINCQASQNLYNNNELSWYQQKPGQPPKLLIYWASTLASGVPSRFKGSGSGTQFTLTISGVQCADAATYYCAGYKSYSNGGNGFGGGTEVVVK",IC50,[7],25.2 nM
"heavy chain of EBV307 paired with light chain of EBV320 (antibody, V domains shown, also called 307H/320L) VH: QSVEESGGGLVKPGGTLTLTCTVSGFSFSNNDVMCWVRQAPGKGLEWIGCIMTTDVVTAYANWAKSRFTVSRTSSTTVTLQVTSLTVADTATYFCARDSVGSPLMSFDLWGPGTLVTVSS VL: LVMTQTPASVSAAVGGTVTINCQASQNLYNNNELSWYQQKPGQPPKLLIYWASTLASGVPSRFKGSGSGTQFTLTISGVQCADAATYYCAGYKSYSNDGNGFGGGTEVVVK",binding result,[8],binds
"heavy chain of EBV321 paired with light chain of EBV302 (antibody, V domains shown) VH: QSLEESGGDLVKPGASLTLSCTASGFSFSNNDVMCWVRQAPGKGLEWIGCIMTTDVVTEYANWAKSRFTVSKTSSSTVTLQLTSLTVADTATYFCARDSVGSPLMSFDLWGPGTLVTVSS VL: LVMTQTPASVSAAVGGTVIINCQASQNLYNNNELSWYQQKPGQPPKLLIYWASTLASGVPSRFKGSGSGTQFTLTISGVQCADAATYYCAGYKSYSNGGNGFGGGTEVVVK",binding result,[8],binds
"heavy chain of EBV320 paired with light chain of EBV321 (antibody, V domains shown, also called 320H/321L) VH: QSLEESGGDLVKPGASLTLTCTASGFSFSNNAVMCWVRQAPGKGLEWIGCIMTTDVVTEYANWAKSRFTVSKTSSTTVTLQMTSLTVADTATYFCARDSVGSPLMSFDLWGPGTLVTVSS VL: LVMTQTPASVSAAVGGTVTINCQASQSVYGNNELSWYQQKPGQPPKLLIYRASTLASGVPSRFSGSGSGTQFTLTISGVQCADAATYYCGGYKSYSNDGNGFGGGTEVVVK",binding result,[8],binds
"heavy chain of EBV302 paired with light chain of EBV321 (antibody, V domains shown, also called 302H/321L) VH: QSLEESGGDLVKPGASLTLTCTASGFSFSNNAVMCWVRQAPGKGLEWIGCIMTTDVVTEYANWAKSRFTVSKTSSTTVTLQMTSLTVADTATYFCARDSVGSPLMSFDLWGPGTLVTVSS VL: LVMTQTPASVSAAVGGTVTINCQASQSVYGNNELSWYQQKPGQPPKLLIYRASTLASGVPSRFSGSGSGTQFTLTISGVQCADAATYYCGGYKSYSNDGNGFGGGTEVVVK",binding result,[8],binds
"heavy chain of EBV321 paired with light chain of EBV307 (antibody, V domains shown) VH: QSLEESGGDLVKPGASLTLSCTASGFSFSNNDVMCWVRQAPGKGLEWIGCIMTTDVVTEYANWAKSRFTVSKTSSSTVTLQLTSLTVADTATYFCARDSVGSPLMSFDLWGPGTLVTVSS VL: LVMTQTPASVSAAVGGTVTINCQASQSVYGNNELSWYQQKPGQRPKLLIYRASTLASGVPSRFSGSGSGTQFTLTISGVQCFDAATYYCSGYKSYYNDGSGFGGGTEVVVK",binding result,[8],binds
"heavy chain of EBV321 paired with light chain of EBV320 (antibody, V domains shown) VH: QSLEESGGDLVKPGASLTLSCTASGFSFSNNDVMCWVRQAPGKGLEWIGCIMTTDVVTEYANWAKSRFTVSKTSSSTVTLQLTSLTVADTATYFCARDSVGSPLMSFDLWGPGTLVTVSS VL: LVMTQTPASVSAAVGGTVTINCQASQNLYNNNELSWYQQKPGQPPKLLIYWASTLASGVPSRFKGSGSGTQFTLTISGVQCADAATYYCAGYKSYSNDGNGFGGGTEVVVK",binding result,[8],binds
"anti-VEGF RabMAb EBV307 (antibody, V domains shown, also called 307H/307L; source: 293-6E cells, L and H chain plasmids co-transfected, purified (protein A)) VH: QSVEESGGGLVKPGGTLTLTCTVSGFSFSNNDVMCWVRQAPGKGLEWIGCIMTTDVVTAYANWAKSRFTVSRTSSTTVTLQVTSLTVADTATYFCARDSVGSPLMSFDLWGPGTLVTVSS VL: LVMTQTPASVSAAVGGTVTINCQASQSVYGNNELSWYQQKPGQRPKLLIYRASTLASGVPSRFSGSGSGTQFTLTISGVQCFDAATYYCSGYKSYYNDGSGFGGGTEVVVK",IC50,[7],2.62 nM
"heavy chain of EBV302 paired with light chain of EBV307 (antibody, V domains shown, also called 302H/307L) VH: QSLEESGGDLVKPGASLTLTCTASGFSFSNNAVMCWVRQAPGKGLEWIGCIMTTDVVTEYANWAKSRFTVSKTSSTTVTLQMTSLTVADTATYFCARDSVGSPLMSFDLWGPGTLVTVSS VL: LVMTQTPASVSAAVGGTVTINCQASQSVYGNNELSWYQQKPGQRPKLLIYRASTLASGVPSRFSGSGSGTQFTLTISGVQCFDAATYYCSGYKSYYNDGSGFGGGTEVVVK",binding result,[8],binds
"heavy chain of EBV307 paired with light chain of EBV302 (antibody, V domains shown, also called 307H/302L) VH: QSVEESGGGLVKPGGTLTLTCTVSGFSFSNNDVMCWVRQAPGKGLEWIGCIMTTDVVTAYANWAKSRFTVSRTSSTTVTLQVTSLTVADTATYFCARDSVGSPLMSFDLWGPGTLVTVSS VL: LVMTQTPASVSAAVGGTVIINCQASQNLYNNNELSWYQQKPGQPPKLLIYWASTLASGVPSRFKGSGSGTQFTLTISGVQCADAATYYCAGYKSYSNGGNGFGGGTEVVVK",binding result,[8],binds
"heavy chain of EBV307 paired with light chain of EBV321 (antibody, V domains shown, also called 307H/321L) VH: QSVEESGGGLVKPGGTLTLTCTVSGFSFSNNDVMCWVRQAPGKGLEWIGCIMTTDVVTAYANWAKSRFTVSRTSSTTVTLQVTSLTVADTATYFCARDSVGSPLMSFDLWGPGTLVTVSS VL: LVMTQTPASVSAAVGGTVTINCQASQSVYGNNELSWYQQKPGQPPKLLIYRASTLASGVPSRFSGSGSGTQFTLTISGVQCADAATYYCGGYKSYSNDGNGFGGGTEVVVK",binding result,[8],binds
"heavy chain of EBV320 paired with light chain of EBV307 (antibody, V domains shown, also called 320H/307L) VH: QSLEESGGDLVKPGASLTLTCTASGFSFSNNAVMCWVRQAPGKGLEWIGCIMTTDVVTEYANWAKSRFTVSKTSSTTVTLQMTSLTVADTATYFCARDSVGSPLMSFDLWGPGTLVTVSS VL: LVMTQTPASVSAAVGGTVTINCQASQSVYGNNELSWYQQKPGQRPKLLIYRASTLASGVPSRFSGSGSGTQFTLTISGVQCFDAATYYCSGYKSYYNDGSGFGGGTEVVVK",binding result,[8],binds
"anti-VEGF RabMAb EBV320 (antibody, V domains shown, also called 320H/320L; source: 293-6E cells, L and H chain plasmids co-transfected, purified (protein A)) VH: QSLEESGGDLVKPGASLTLTCTASGFSFSNNAVMCWVRQAPGKGLEWIGCIMTTDVVTEYANWAKSRFTVSKTSSTTVTLQMTSLTVADTATYFCARDSVGSPLMSFDLWGPGTLVTVSS VL: LVMTQTPASVSAAVGGTVTINCQASQNLYNNNELSWYQQKPGQPPKLLIYWASTLASGVPSRFKGSGSGTQFTLTISGVQCADAATYYCAGYKSYSNDGNGFGGGTEVVVK",IC50,[7],3.32 nM
